Target: T1, Spc97-3HA (S. cerevisiae, UniProt P38863 1-823)
T1 construct: Spc97, budding yeast; tagged with 3HA in the TUB4-AID strain; source: S. cerevisiae (TUB4-AID SPC97-3HA strain), in lysate
T1 sequence (looked up): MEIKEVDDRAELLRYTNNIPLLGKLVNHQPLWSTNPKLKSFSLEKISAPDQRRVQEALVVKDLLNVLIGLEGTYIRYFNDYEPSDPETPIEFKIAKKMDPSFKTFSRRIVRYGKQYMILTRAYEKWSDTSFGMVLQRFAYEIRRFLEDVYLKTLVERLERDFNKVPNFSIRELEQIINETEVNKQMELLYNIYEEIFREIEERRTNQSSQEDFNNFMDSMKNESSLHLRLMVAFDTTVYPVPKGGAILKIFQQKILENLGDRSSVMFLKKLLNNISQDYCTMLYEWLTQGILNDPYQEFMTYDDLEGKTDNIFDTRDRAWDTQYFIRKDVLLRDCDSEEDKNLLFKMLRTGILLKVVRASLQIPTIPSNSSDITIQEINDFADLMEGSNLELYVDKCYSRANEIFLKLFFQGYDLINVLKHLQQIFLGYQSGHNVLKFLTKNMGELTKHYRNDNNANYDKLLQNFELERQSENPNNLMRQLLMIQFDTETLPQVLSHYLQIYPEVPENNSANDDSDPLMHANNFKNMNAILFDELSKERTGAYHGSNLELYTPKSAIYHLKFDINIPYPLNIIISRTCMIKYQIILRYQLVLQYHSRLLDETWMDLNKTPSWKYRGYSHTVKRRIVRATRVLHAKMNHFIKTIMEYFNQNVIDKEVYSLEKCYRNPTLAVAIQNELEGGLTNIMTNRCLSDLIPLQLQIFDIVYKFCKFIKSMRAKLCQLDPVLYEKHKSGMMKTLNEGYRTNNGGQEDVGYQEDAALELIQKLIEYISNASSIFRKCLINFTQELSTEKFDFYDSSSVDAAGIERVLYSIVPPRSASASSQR
Test: co-IP; anti-HA immunoprecipitation of Spc97-3HA from lysates of TUB4-AID SPC97-3HA cells carrying pRS305 with TUB4, tub4-S74E, tub4-S100E or tub4-S360D, after 2 h of 0.5 mM IAA at 30°C to deplete Tub4-AID; blots with anti-Tub4, anti-Spc98, anti-Spc110 and anti-HA, normalised to precipitated Spc97-3HA
Conditions: partners not purified

amount in complexes with Spc97-3HA relative to WT Tub4: ~75 % of WT Tub4
B1: Tub4-S74E (natural protein, S. cerevisiae, UniProt P53378 1-473, looked up)
chain: MGGEIITLQAGQCGNHVGKFLWSQLAKEHAIGTDGLSQLPDSSTERDDDTKPFFRENSRNKFTPRAIMMDSEPEVIADVENTFRGFFDPRNTWVASDGASAGNSWANGYDIGTRNQDDILNKIDKEIDSTDNFEGFQLLHSVAGGTGSGLGSNLLEALCDRYPKKILTTYSVFPARSSEVVVQSYNTILALRRLIEDSDATVVFDNASLLNISGKVFRNPNIDLQHTNQLISTIISSVTNSIRFPSYMYSSMSSIYSTLIPSPELHFLSPSFTPFTSDYIHDDIAHKGHSSYDVMLDLLDPSNSLVSTAMNNPTYFNVYNTIIGNVEPRQISRAMTKLQQRIKFPSWSSSAMHVNIGRRSPYLPLQPNENEVSGMMLSNMSTVVNVFENACNTFDKVFAKGAFLNNYNVGDLFQSMQNVQDEFAESREVVQSLMEDYVAAEQDSYLDDVLVDDENMVGELEEDLDADGDHKLV
notes: Tub4, gamma-tubulin of budding yeast, phospho-mimicking mutant; source: S. cerevisiae, from integrated pRS305-tub4-S74E, in lysate
